Measurements: paper PMC10212922, “A blocking monoclonal antibody reveals dimerization of intracellular domains of ALK2 associated with genetic disorders” (Nature Communications, 2023)

Experiments:
V5-tagged mouse ALK2 = V5-tagged mouse ALK2 (mouse, UniProt P37172); test: cell-based or functional assay
[1] = target: T1, His-tagged and Fc-tagged mouse ALK2 protein (Sino Biological) (mouse, UniProt P37172 21-123); test: SPR
T1 chain: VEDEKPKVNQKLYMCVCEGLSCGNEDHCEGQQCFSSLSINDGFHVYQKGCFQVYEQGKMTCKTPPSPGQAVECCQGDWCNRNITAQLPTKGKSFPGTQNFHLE

[2] = target: T2, His-tagged and Fc-tagged human ALK2 protein (Sino Biological) (human, UniProt Q04771 21-123); test: SPR
T2 chain: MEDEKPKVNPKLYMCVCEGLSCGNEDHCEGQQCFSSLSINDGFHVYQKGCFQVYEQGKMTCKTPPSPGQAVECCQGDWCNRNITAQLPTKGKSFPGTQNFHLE

[3] = target: T3, His-tagged and Fc-tagged human ALK2 protein (Sino Biological) (Homo sapiens, UniProt Q04771); test: SPR; BIAcore T200; anti-histidine antibody immobilised on a CM5 chip, His- and Fc-tagged ALK2 (10 μg/ml) captured; antibody 0.195-50 nM injected, single-cycle kinetics, 300 s association, 1800 s dissociation, 30 μl/min; bivalent analyte model; the methods speak of avidity; settings: both partners purified
T3 construct: activin receptor-like kinase 2 (ALK2), human; source: bought: Sino Biological Inc

[4] = target: T4, His-tagged and Fc-tagged mouse ALK2 protein (Sino Biological) (Mus musculus, UniProt P37172); test: as above; settings: both partners purified
T4 construct: activin receptor-like kinase 2 (ALK2), mouse, extracellular domain; also called 6x His-tagged mouse ALK2 ECD fused to human IgG Fc; source: bought: Sino Biological Inc

V5-tagged mouse ALK2, sequence (P37172 21-509): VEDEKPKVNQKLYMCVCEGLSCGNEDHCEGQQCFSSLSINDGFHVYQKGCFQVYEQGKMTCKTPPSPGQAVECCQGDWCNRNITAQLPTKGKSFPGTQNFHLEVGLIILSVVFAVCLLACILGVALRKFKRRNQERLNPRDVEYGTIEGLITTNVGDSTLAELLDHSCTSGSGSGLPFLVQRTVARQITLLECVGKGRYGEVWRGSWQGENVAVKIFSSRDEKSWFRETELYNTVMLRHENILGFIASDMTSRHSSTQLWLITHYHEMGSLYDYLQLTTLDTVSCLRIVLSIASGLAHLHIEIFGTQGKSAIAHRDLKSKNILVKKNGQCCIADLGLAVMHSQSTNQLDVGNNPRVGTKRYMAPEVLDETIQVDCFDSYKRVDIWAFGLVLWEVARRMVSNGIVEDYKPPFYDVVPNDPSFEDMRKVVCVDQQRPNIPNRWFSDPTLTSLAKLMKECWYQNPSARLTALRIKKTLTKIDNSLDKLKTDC

B1: Rm0443, rat anti-ALK2 monoclonal antibody clone #0443 (antibody, V domains shown)
VH: EVQLVESGGGLVQPGRSLKLSCLASGSTFSNYGMKWIRQAPGKGLEWVASISRSSTYIYYADTVKGRFTISRDNARNTLYLQMTSLRSEDTALYYCAAAISTPFYWYFDFWGPGTVVTVSS
VL: EIVLTQSPTTMAASPGEKVTLNCLASSSVSYMTWYQQKSGASPKLWIYGTSNLASGVPNRFSGSGSGTSYSLAISSMEAEDVATYYCLHLTSYPPYTFGAGTKLELK
notes: variable region as in the heavy chain of the chimeric Fab m2 (PDB 7YRU); variable region as in the light chain of the chimeric Fab m2 (PDB 7YRU); Whole rat IgG from the hybridoma; PDB 7YRU holds the rat variable regions on human IgG1 kappa constant regions; source: rat hybridoma, purified from serum-free conditioned medium (protein G column)
**Q.** Which results are given for B1?
**A.** IC50 of Rm0443 against ALP activity induced by 300 ng/ml BMP7 in C2C12 cells (endogenous ALK2), day 3 (V5-tagged mouse ALK2): 0.017 µg/mL; IC50 of Rm0443 against BMP-specific luciferase reporter activity induced by 300 ng/ml BMP7 in C2C12 cells (endogenous ALK2), overnight (V5-tagged mouse ALK2): 0.216 µg/mL; koff [1]: 0.00563 s⁻¹; koff [2]: 0.00576 s⁻¹; Kd [3]: 5.6 nM; Kd [4]: 5.1 nM
